Biological target: Cy3–Cy5 labeled nucleosome containing H3KC36me3 (human) (UniProt Q71DI3)
Assay: other fluorescence titration

Kd: 20 µM
S1/2 of the PHF1(2–87) titration at constant LexA: 16 µM
Substance: PHF1(2–87) (domain or fragment)

Reference: PMC5397176
